A short description of the data set: self-splicing fitness, log relative to wild type (ln ratio); higher = more splicing; Tetrahymena group I intron in knt gene, E. coli kanamycin selection, DiMSum; sequences stand for … in CUCUCU…GGAGGGAAAAGUUAUCAGGCAUGCACCUGGUAGCUAGUCUUUAAACCAAUAGAUUGCAUCGGUUUAAAAGGCAAGACCGUCAAAUUGCGGGAAAGGGGUCAACAGCCGUUCAGUACCAAGUCUCAGGGGAAACUUUGAGAUGGCCUUGCAAAGGGUAUGGUAAUAAGCUGACGGACAUGGUCCUAACCACGCAGCCAAGUCCUAAGUCAACAGAUCUUCUGUUGAUAUGGAUGCAGUUCACAGACUAAAUGUCGGUCGGGGAAGAUGUAUUCUUCUCAUAAGAUAUAGUCGGACCUCUCCUUAAUGGGAGCUAGCGGAUGAAGUGAUGCAACACUGGAGCCGCUGGGAACUAAUUUGUAUGCGAAAGUAUAUUGAUUAGUUUUGGAGUACUCGUGGUCG
The procedure, abridged:
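Library with all eight P1ex-region intron nucleotides randomised, intron inside the knt kanamycin-resistance gene on pET-22b(+), in E. coli BL21(DE3). Cells grew overnight at 37°C or 30°C on LB agar with or without 25 μg/mL kanamycin (plus 100 μg/mL carbenicillin, 50 μM IPTG, 0.2% rhamnose), in six replicate transformations. Pooled colonies were amplicon-sequenced on Illumina HiSeq 2500. DiMSum fitness is the error-weighted combination of wild-type-normalised replicate fold changes, kanamycin versus none.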

We go through 77 sequences from the supplement of paper PMC7877785.

± gives the uncertainty stated by the source.

Consider UCACAGCAAUAUUACGUAAC, for which the “self-splicing fitness (ln)” value (30 °C) is -3.69 ± 0.12 and the “self-splicing fitness (ln)” value (37 °C) is -2.79 ± 0.14. For UUUCAGCAAUAUUACGUGGA the same measures were -3.32 ± 0.22 and -2.3 ± 0.35.

Take CGUUAGCAAUAUUACGGCUA: the “self-splicing fitness (ln)” value (30 °C) is -2.27 ± 0.37. As for UAUGAGCAAUAUUACGAGUC, the “self-splicing fitness (ln)” value (37 °C) is -0.461 ± 0.46. As for AUCUAGCAAUAUUACGAGAG, the “self-splicing fitness (ln)” value by setting is: (30 °C) -1.88 ± 0.11; (37 °C) -0.329 ± 0.1. For CGAAAGCAAUAUUACGAUUU the same measures were -2.12 ± 0.09 and -0.815 ± 0.099. Turning to AUUUAGCAAUAUUACGGUAC, the “self-splicing fitness (ln)” value (37 °C) is -1.07 ± 0.33.

Consider CACAAGCAAUAUUACGGCUC, for which the “self-splicing fitness (ln)” value reads like this: (30 °C) -2.56 ± 0.18; (37 °C) -1.75 ± 0.16. For CAAUAGCAAUAUUACGCUGC, the “self-splicing fitness (ln)” value reads like this: (30 °C) -3.49 ± 0.28; (37 °C) -1.92 ± 0.33. For CUGCAGCAAUAUUACGUAUC the same measures were -4.37 ± 0.19 and -2.73 ± 0.18. For UCGCAGCAAUAUUACGAGCA the same measures were -1.25 ± 0.23 and -0.449 ± 0.27. On the same counts, the results for ACCAAGCAAUAUUACGUCUC are -2.73 ± 0.094 and -2.28 ± 0.12. On to GAUGAGCAAUAUUACGGUGA, for which the “self-splicing fitness (ln)” value runs as follows: (30 °C) -2.21 ± 0.28; (37 °C) -1.76 ± 0.27.

Take AGUAAGCAAUAUUACGCGUC: the “self-splicing fitness (ln)” value runs as follows: (30 °C) -3.37 ± 0.19; (37 °C) -2.2 ± 0.17. Regarding GGUGAGCAAUAUUACGGGAG, the “self-splicing fitness (ln)” value reads like this: (30 °C) -1.79 ± 0.28; (37 °C) -2.68 ± 0.48. On the same counts, the results for ACCCAGCAAUAUUACGUUCU are -1.31 ± 0.062 and -1 ± 0.071. For UACGAGCAAUAUUACGCAGC the same measures were -3.16 ± 0.34 and -3.83 ± 0.46. On the same counts, the results for CUAGAGCAAUAUUACGAACG are 0.208 ± 0.12 and 0.617 ± 0.14. For the sequence ACCAAGCAAUAUUACGCUGA, the “self-splicing fitness (ln)” value by setting is: (30 °C) -1.73 ± 0.1; (37 °C) -1.13 ± 0.11.

Consider UCAAAGCAAUAUUACGAAAG, for which the “self-splicing fitness (ln)” value is, setting by setting: (30 °C) -3.84 ± 0.31; (37 °C) -1.43 ± 0.18. For the sequence CAUAAGCAAUAUUACGUGGU, the “self-splicing fitness (ln)” value runs as follows: (30 °C) -3.76 ± 0.17; (37 °C) -3.31 ± 0.2. On the same counts, the results for UGCGAGCAAUAUUACGGUGU are -4.19 ± 0.23 and -3.16 ± 0.4.

On to CCACAGCAAUAUUACGAUUG, for which the “self-splicing fitness (ln)” value (30 °C) was -1.3 ± 0.05 and the “self-splicing fitness (ln)” value (37 °C) was -0.453 ± 0.067. Consider AAUUAGCAAUAUUACGAGUG, for which the “self-splicing fitness (ln)” value (30 °C) is -1.08 ± 0.081 and the “self-splicing fitness (ln)” value (37 °C) was -0.525 ± 0.11. On the same counts, the results for CGUCAGCAAUAUUACGCGGU are -2.93 ± 0.16 and -2.27 ± 0.19. Take AUCCAGCAAUAUUACGUCUG: the “self-splicing fitness (ln)” value reads like this: (30 °C) -3.67 ± 0.23; (37 °C) -2.55 ± 0.25. For GGCAAGCAAUAUUACGCAUG the same measures were -2.17 ± 0.12 and -1.36 ± 0.16. With CAUGAGCAAUAUUACGCUGG, the “self-splicing fitness (ln)” value is, setting by setting: (30 °C) -3.36 ± 0.17; (37 °C) -2.58 ± 0.18. On the same counts, the results for AGGUAGCAAUAUUACGCGCU are -1.13 ± 0.017 and -0.72 ± 0.036. With UGUCAGCAAUAUUACGAUCG, the “self-splicing fitness (ln)” value runs as follows: (30 °C) 0.238 ± 0.098; (37 °C) 0.647 ± 0.12.

As to CUACAGCAAUAUUACGCUCA, the “self-splicing fitness (ln)” value runs as follows: (30 °C) -4.47 ± 0.42; (37 °C) -2.6 ± 0.39. On the same counts, the results for ACUGAGCAAUAUUACGAGAU are -4.18 ± 0.33 and -2.27 ± 0.21. On the same counts, the results for CACUAGCAAUAUUACGGCUA are -3.46 ± 0.47 and -2.1 ± 0.32. On the same counts, the results for GUCGAGCAAUAUUACGAUCA are -1 ± 0.19 and -0.515 ± 0.21. As to CCCUAGCAAUAUUACGCAGG, the “self-splicing fitness (ln)” value runs as follows: (30 °C) -3.06 ± 0.22; (37 °C) -3.3 ± 0.3. For GCUGAGCAAUAUUACGUUAU the same measures were -2.96 ± 0.25 and -2.33 ± 0.28. On the same counts, the results for CAAUAGCAAUAUUACGAGAA are -3.83 ± 0.39 and -2.71 ± 0.3. Regarding CGCAAGCAAUAUUACGUUCU, the “self-splicing fitness (ln)” value (30 °C) is -1.53 ± 0.076 and the “self-splicing fitness (ln)” value (37 °C) is -1.33 ± 0.087. Turning to AUCGAGCAAUAUUACGGACC, the “self-splicing fitness (ln)” value (30 °C) is -0.501 ± 0.48. Consider AACCAGCAAUAUUACGGAUU, for which the “self-splicing fitness (ln)” value runs as follows: (30 °C) -2.07 ± 0.071; (37 °C) -1.08 ± 0.087. On the same counts, the results for GGAAAGCAAUAUUACGACGU are -0.135 ± 0.097 and 0.068 ± 0.1. For GAGUAGCAAUAUUACGCAAG the same measures were -3.43 ± 0.26 and -0.127 ± 0.1. For AGCAAGCAAUAUUACGUGAA the same measures were -2.21 ± 0.068 and -1.95 ± 0.11. As for UAGCAGCAAUAUUACGGCAC, the “self-splicing fitness (ln)” value is -2.14 ± 0.18 (30 °C) and 0.167 ± 0.21 (37 °C). For AUAGAGCAAUAUUACGCCGG, the “self-splicing fitness (ln)” value is -2.52 ± 0.31 (30 °C) and -1.94 ± 0.47 (37 °C). Regarding AGUUAGCAAUAUUACGUGCA, the “self-splicing fitness (ln)” value was -1.6 ± 0.14 (30 °C) and -0.22 ± 0.15 (37 °C). Turning to CCCAAGCAAUAUUACGAAGU, the “self-splicing fitness (ln)” value by setting is: (30 °C) -2.98 ± 0.15; (37 °C) -2.19 ± 0.18. Regarding GUCCAGCAAUAUUACGUAAU, the “self-splicing fitness (ln)” value runs as follows: (30 °C) -0.156 ± 0.07; (37 °C) 0.76 ± 0.081. For AGGUAGCAAUAUUACGGGAC the same measures were -3.462 ± 0.028 and -2.15 ± 0.039. For UACCAGCAAUAUUACGUUUG, the “self-splicing fitness (ln)” value (30 °C) was -3.36 ± 0.12 and the “self-splicing fitness (ln)” value (37 °C) was -2.43 ± 0.13. Turning to GUGGAGCAAUAUUACGCAUA, the “self-splicing fitness (ln)” value (37 °C) is -1.1 ± 0.4.

Turning to GCUUAGCAAUAUUACGUCGA, the “self-splicing fitness (ln)” value is, setting by setting: (30 °C) -1.67 ± 0.088; (37 °C) -0.777 ± 0.11. For AAAAAGCAAUAUUACGCUAG the same measures were -1.41 ± 0.086 and -0.619 ± 0.085.

Turning to CGCGAGCAAUAUUACGAGCG, the “self-splicing fitness (ln)” value is, setting by setting: (30 °C) -3.55 ± 0.28; (37 °C) -2.37 ± 0.3.

On to UGUAAGCAAUAUUACGGCUG, for which the “self-splicing fitness (ln)” value was 0.2 ± 0.1 (30 °C) and -0.152 ± 0.11 (37 °C).

Regarding CAAAAGCAAUAUUACGCAAU, the “self-splicing fitness (ln)” value (30 °C) is -4.03 ± 0.3 and the “self-splicing fitness (ln)” value (37 °C) is -1.93 ± 0.24. For GGGGAGCAAUAUUACGACUU the same measures were -1.2 ± 0.16 and 0.242 ± 0.22.

As to GGAAAGCAAUAUUACGACCA, the “self-splicing fitness (ln)” value runs as follows: (30 °C) -0.87 ± 0.11; (37 °C) -0.318 ± 0.14. On the same counts, the results for CGAAAGCAAUAUUACGUCCG are -1.22 ± 0.088 and -0.637 ± 0.12. On the same counts, the results for ACGUAGCAAUAUUACGCUGG are -2.32 ± 0.18 and -2.64 ± 0.41. On the same counts, the results for CCGAAGCAAUAUUACGAACU are -3.08 ± 0.29 and -2.17 ± 0.46. As to AUGAAGCAAUAUUACGCAGU, the “self-splicing fitness (ln)” value by setting is: (30 °C) -1.36 ± 0.11; (37 °C) -0.415 ± 0.11. Consider AAAUAGCAAUAUUACGAGCA, for which the “self-splicing fitness (ln)” value is -1.4 ± 0.11 (30 °C) and -0.127 ± 0.11 (37 °C). On to ACUCAGCAAUAUUACGCCUG, for which the “self-splicing fitness (ln)” value is, setting by setting: (30 °C) -3.39 ± 0.22; (37 °C) -1.5 ± 0.2. Consider AUUAAGCAAUAUUACGCGCC, for which the “self-splicing fitness (ln)” value is -1.18 ± 0.15 (30 °C) and -0.862 ± 0.2 (37 °C). For GACCAGCAAUAUUACGCGGU the same measures were -4.81 ± 0.39 and -3.27 ± 0.27. Turning to CCUUAGCAAUAUUACGGCAU, the “self-splicing fitness (ln)” value runs as follows: (30 °C) -3.41 ± 0.19; (37 °C) -2.88 ± 0.32. Turning to UAAGAGCAAUAUUACGUUAG, the “self-splicing fitness (ln)” value is -3.43 ± 0.24 (30 °C) and -3.1 ± 0.27 (37 °C).

In the case of UGGGAGCAAUAUUACGUUGG, the “self-splicing fitness (ln)” value is -3.45 ± 0.22 (30 °C) and -2.85 ± 0.26 (37 °C). Consider CUAGAGCAAUAUUACGUUAA, for which the “self-splicing fitness (ln)” value (30 °C) was -3.73 ± 0.24 and the “self-splicing fitness (ln)” value (37 °C) is -1.89 ± 0.28.

With GGUAAGCAAUAUUACGCUCG, the “self-splicing fitness (ln)” value is -0.274 ± 0.13 (30 °C) and -0.892 ± 0.23 (37 °C). On to AGUGAGCAAUAUUACGUAUG, for which the “self-splicing fitness (ln)” value (37 °C) is -2.56 ± 0.32. With AGAGAGCAAUAUUACGAGAU, the “self-splicing fitness (ln)” value runs as follows: (30 °C) -2.92 ± 0.37; (37 °C) -1.38 ± 0.27. As to GGUAAGCAAUAUUACGCUAC, the “self-splicing fitness (ln)” value reads like this: (30 °C) -2.3 ± 0.4; (37 °C) -2.23 ± 0.37.

As to UUCAAGCAAUAUUACGGGAC, the “self-splicing fitness (ln)” value is -2.58 ± 0.16 (30 °C) and -2.43 ± 0.28 (37 °C).

For GCCUAGCAAUAUUACGCUCA, the “self-splicing fitness (ln)” value by setting is: (30 °C) -1.68 ± 0.16; (37 °C) -0.0373 ± 0.17. For AUAAAGCAAUAUUACGAGCA the same measures were -0.252 ± 0.074 and -0.299 ± 0.082.
